Test system: Escherichia coli TOP10
Experiment: shrunken log2 fold change of peptide-encoding DNA abundance (4.5 h post-induction vs induction); higher = less antimicrobial activity (less host growth inhibition)
Details: time post-induction: 4.5 h; library: site-saturation at positions 5, 18, 19, 20
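Note: peptides expressed intracellularly from a pBAD plasmid library in pooled LB shake-flask culture, induced with 0.3% L-arabinose, DNA abundance read by NGS, three biological replicates, DESeq2 with apeglm shrinkage.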

| Sequence | shrunken log2 fold change |
| --- | --- |
| RRIRDRPPRLPRPRPRPQHYPRP | -0.856 |
| RRIRDRPPRLPRPRPRPARVPRP | 0.948 |
| RRIRLRPPRLPRPRPRPNIAPRP | -0.0706 |
| RRIRERPPRLPRPRPRPYNPPRP | 0.00932 |
| RRIRVRPPRLPRPRPRPWRPPRP | 0.328 |
| RRIRIRPPRLPRPRPRPIDHPRP | -0.0137 |
| RRIRSRPPRLPRPRPRPIKAPRP | 0.0326 |
| RRIRNRPPRLPRPRPRPCNRPRP | -0.00992 |
| RRIRPRPPRLPRPRPRPRNEPRP | 0.139 |
| RRIRWRPPRLPRPRPRPDCEPRP | 2.54 |
| RRIRKRPPRLPRPRPRPDNTPRP | -0.0368 |
| RRIRPRPPRLPRPRPRPLCDPRP | -0.312 |
| RRIRRRPPRLPRPRPRPSQDPRP | 0.112 |
| RRIRVRPPRLPRPRPRPYIQPRP | -0.472 |
| RRIRARPPRLPRPRPRPHDAPRP | 0.122 |
| RRIRHRPPRLPRPRPRPIPDPRP | -0.275 |
| RRIRLRPPRLPRPRPRPNAMPRP | -0.16 |
| RRIRIRPPRLPRPRPRPYQEPRP | 0.0173 |
| RRIRKRPPRLPRPRPRPHFSPRP | -0.0531 |
| RRIRSRPPRLPRPRPRPLWRPRP | 0.303 |
| RRIRLRPPRLPRPRPRPQVAPRP | 0.0825 |
| RRIRMRPPRLPRPRPRPGKYPRP | 0.0424 |
| RRIRDRPPRLPRPRPRPMWSPRP | -0.0459 |
| RRIRLRPPRLPRPRPRPVNYPRP | -0.231 |
| RRIRTRPPRLPRPRPRPIARPRP | -0.00992 |

| Sequence | shrunken log2 fold change |
| --- | --- |
| RRIRERPPRLPRPRPRPQELPRP | -0.755 |
| RRIRLRPPRLPRPRPRPGCAPRP | 0.444 |
| RRIRPRPPRLPRPRPRPNLDPRP | 0.109 |
| RRIRNRPPRLPRPRPRPIVCPRP | -0.301 |
| RRIRHRPPRLPRPRPRPMRHPRP | -0.0546 |
| RRIRKRPPRLPRPRPRPEDCPRP | -0.00264 |
| RRIRARPPRLPRPRPRPFMCPRP | 0.618 |
| RRIRQRPPRLPRPRPRPPRIPRP | 0.0686 |
| RRIRSRPPRLPRPRPRPNDCPRP | -0.00188 |
| RRIRERPPRLPRPRPRPYEEPRP | -0.636 |
| RRIRVRPPRLPRPRPRPACFPRP | 0.169 |
| RRIRIRPPRLPRPRPRPSNSPRP | -1.13 |
| RRIRIRPPRLPRPRPRPHRQPRP | -0.152 |
| RRIRSRPPRLPRPRPRPNWHPRP | -0.137 |
| RRIRFRPPRLPRPRPRPDFCPRP | -0.0235 |
| RRIRMRPPRLPRPRPRPNPIPRP | 0.188 |
| RRIRYRPPRLPRPRPRPFVMPRP | -1.07 |
| RRIRWRPPRLPRPRPRPYQDPRP | -0.411 |
| RRIRSRPPRLPRPRPRPMTYPRP | 0.132 |
| RRIRPRPPRLPRPRPRPHRKPRP | -0.0741 |
| RRIRPRPPRLPRPRPRPRTRPRP | 0.187 |
| RRIRERPPRLPRPRPRPAVHPRP | -0.144 |
| RRIRCRPPRLPRPRPRPYWCPRP | -0.201 |
| RRIRKRPPRLPRPRPRPHYVPRP | -0.0482 |
| RRIRDRPPRLPRPRPRPGNFPRP | -0.0885 |

| Sequence | shrunken log2 fold change |
| --- | --- |
| RRIRQRPPRLPRPRPRPGDCPRP | -0.0893 |
| RRIRFRPPRLPRPRPRPQATPRP | -0.248 |
| RRIRCRPPRLPRPRPRPSHMPRP | -0.838 |
| RRIRDRPPRLPRPRPRPKYLPRP | -0.131 |
| RRIRNRPPRLPRPRPRPMCTPRP | -0.124 |
| RRIRRRPPRLPRPRPRPWTIPRP | -0.189 |
| RRIRPRPPRLPRPRPRPMYSPRP | -0.386 |
| RRIRRRPPRLPRPRPRPPDFPRP | -0.079 |
| RRIRGRPPRLPRPRPRPLNAPRP | 0.908 |
| RRIRARPPRLPRPRPRPAVGPRP | 0.512 |
| RRIRSRPPRLPRPRPRPDWKPRP | -0.0322 |
| RRIRSRPPRLPRPRPRPELYPRP | -0.00809 |
| RRIRMRPPRLPRPRPRPMDNPRP | 0.0672 |
| RRIRTRPPRLPRPRPRPSFFPRP | -0.256 |
| RRIRARPPRLPRPRPRPFITPRP | -0.543 |
| RRIRWRPPRLPRPRPRPWACPRP | 0.0611 |
| RRIRNRPPRLPRPRPRPQYWPRP | -0.37 |
| RRIRIRPPRLPRPRPRPGMTPRP | -0.164 |
| RRIRRRPPRLPRPRPRPIFWPRP | 0.821 |
| RRIRLRPPRLPRPRPRPCKKPRP | -0.149 |
| RRIRYRPPRLPRPRPRPGHSPRP | -0.13 |
| RRIRKRPPRLPRPRPRPKCHPRP | 0.182 |
| RRIRMRPPRLPRPRPRPVKSPRP | 0.023 |
| RRIRWRPPRLPRPRPRPSSLPRP | 0.449 |
| RRIRERPPRLPRPRPRPKELPRP | 0.00511 |

| Sequence | shrunken log2 fold change |
| --- | --- |
| RRIRQRPPRLPRPRPRPLQPPRP | -0.0373 |
| RRIRLRPPRLPRPRPRPDMCPRP | -0.0164 |
| RRIRARPPRLPRPRPRPSRHPRP | -0.00582 |
| RRIRDRPPRLPRPRPRPPWEPRP | 0.0453 |
| RRIRARPPRLPRPRPRPDTNPRP | -0.0188 |
| RRIRFRPPRLPRPRPRPHRAPRP | -0.0573 |
| RRIRNRPPRLPRPRPRPVMLPRP | -0.171 |
| RRIRMRPPRLPRPRPRPDNPPRP | 0.0534 |
| RRIRFRPPRLPRPRPRPTTLPRP | -0.0787 |
| RRIRARPPRLPRPRPRPTNLPRP | 0.0653 |
| RRIRHRPPRLPRPRPRPELCPRP | -0.135 |
| RRIRDRPPRLPRPRPRPFGGPRP | -0.0275 |
| RRIRDRPPRLPRPRPRPVYRPRP | -0.0426 |
| RRIRGRPPRLPRPRPRPFPVPRP | 0.291 |
| RRIRIRPPRLPRPRPRPQFIPRP | -0.782 |
| RRIRQRPPRLPRPRPRPFEWPRP | 0.0112 |
| RRIRWRPPRLPRPRPRPKKIPRP | 0.0449 |
| RRIRYRPPRLPRPRPRPARFPRP | 0.181 |
| RRIRWRPPRLPRPRPRPLPFPRP | -0.387 |
| RRIRYRPPRLPRPRPRPSCWPRP | -0.349 |
| RRIRKRPPRLPRPRPRPAILPRP | 0.0725 |
| RRIRYRPPRLPRPRPRPFWPPRP | 0.0953 |
| RRIRRRPPRLPRPRPRPVCCPRP | 0.158 |
| RRIRMRPPRLPRPRPRPRHYPRP | -0.0487 |
| RRIRIRPPRLPRPRPRPETWPRP | 0.142 |

| Sequence | shrunken log2 fold change |
| --- | --- |
| RRIRRRPPRLPRPRPRPTYRPRP | 0.309 |
| RRIRCRPPRLPRPRPRPGEWPRP | 0.393 |
| RRIRFRPPRLPRPRPRPKNHPRP | -0.347 |
| RRIRLRPPRLPRPRPRPVAYPRP | -0.438 |
| RRIRNRPPRLPRPRPRPQIKPRP | -0.479 |
| RRIRVRPPRLPRPRPRPSYAPRP | -0.477 |
| RRIRGRPPRLPRPRPRPHIHPRP | -0.0259 |
| RRIRRRPPRLPRPRPRPYMVPRP | -0.361 |
| RRIRLRPPRLPRPRPRPCYPPRP | -0.661 |
| RRIRHRPPRLPRPRPRPEDNPRP | -0.0032 |
| RRIRARPPRLPRPRPRPTTRPRP | 0.61 |
| RRIRIRPPRLPRPRPRPVNSPRP | -0.319 |
| RRIRSRPPRLPRPRPRPVWYPRP | 0.154 |
| RRIRTRPPRLPRPRPRPKTVPRP | -0.0654 |
| RRIRGRPPRLPRPRPRPFDIPRP | 0.198 |
| RRIRFRPPRLPRPRPRPDGVPRP | -0.14 |
| RRIRLRPPRLPRPRPRPLDPPRP | 0.061 |
| RRIRDRPPRLPRPRPRPTWYPRP | -0.238 |
| RRIRFRPPRLPRPRPRPKPGPRP | 0.446 |
| RRIRLRPPRLPRPRPRPPFSPRP | -0.25 |
| RRIRKRPPRLPRPRPRPTYKPRP | -0.198 |
| RRIRQRPPRLPRPRPRPCLEPRP | 0.0782 |
| RRIRNRPPRLPRPRPRPQPIPRP | 0.14 |
| RRIRGRPPRLPRPRPRPAKVPRP | 0.431 |
| RRIRMRPPRLPRPRPRPIMRPRP | 0.537 |

| Sequence | shrunken log2 fold change |
| --- | --- |
| RRIRWRPPRLPRPRPRPPYFPRP | -0.0123 |
| RRIRLRPPRLPRPRPRPQYSPRP | -0.1 |
| RRIRDRPPRLPRPRPRPFVMPRP | 0.0243 |
| RRIRYRPPRLPRPRPRPVQIPRP | -0.146 |
| RRIRQRPPRLPRPRPRPTQQPRP | 0.0196 |
| RRIRKRPPRLPRPRPRPGWSPRP | 3 |
| RRIRYRPPRLPRPRPRPEHNPRP | -0.0212 |
| RRIRWRPPRLPRPRPRPYYTPRP | -0.899 |
| RRIRIRPPRLPRPRPRPQHGPRP | -0.184 |
| RRIRERPPRLPRPRPRPWCEPRP | -0.349 |
| RRIRRRPPRLPRPRPRPIKAPRP | 0.0673 |
| RRIRQRPPRLPRPRPRPDKNPRP | -0.635 |
| RRIRPRPPRLPRPRPRPEHCPRP | -0.034 |
| RRIRARPPRLPRPRPRPVGMPRP | 0.376 |
| RRIRQRPPRLPRPRPRPGNSPRP | -0.391 |
| RRIRYRPPRLPRPRPRPAQSPRP | 0.256 |
| RRIRARPPRLPRPRPRPGEDPRP | 0.814 |
| RRIRLRPPRLPRPRPRPCCPPRP | -0.196 |
| RRIRDRPPRLPRPRPRPQWIPRP | -0.222 |
| RRIRMRPPRLPRPRPRPFREPRP | 0.2 |
| RRIRMRPPRLPRPRPRPRPEPRP | 1.35 |
| RRIRTRPPRLPRPRPRPYAWPRP | -0.0721 |
| RRIRFRPPRLPRPRPRPYFLPRP | -0.628 |
| RRIRGRPPRLPRPRPRPEDQPRP | 0.0373 |
| RRIRTRPPRLPRPRPRPVLYPRP | -0.365 |

Source: the supplement of paper PMC9112550, “Optimization of the antimicrobial peptide Bac7 by deep mutational scanning” (BMC Biology, 2022)
